# Test results: article PMC10393190 (Genes & Development, 2022)
# Read-outs that look alike come from different tables or passages of the source.
# T1: Rec114;Mei4 (Saccharomyces cerevisiae;Saccharomyces …, UniProt P32841;P29467 1-428;1-408, |)
# T1 sequence 1: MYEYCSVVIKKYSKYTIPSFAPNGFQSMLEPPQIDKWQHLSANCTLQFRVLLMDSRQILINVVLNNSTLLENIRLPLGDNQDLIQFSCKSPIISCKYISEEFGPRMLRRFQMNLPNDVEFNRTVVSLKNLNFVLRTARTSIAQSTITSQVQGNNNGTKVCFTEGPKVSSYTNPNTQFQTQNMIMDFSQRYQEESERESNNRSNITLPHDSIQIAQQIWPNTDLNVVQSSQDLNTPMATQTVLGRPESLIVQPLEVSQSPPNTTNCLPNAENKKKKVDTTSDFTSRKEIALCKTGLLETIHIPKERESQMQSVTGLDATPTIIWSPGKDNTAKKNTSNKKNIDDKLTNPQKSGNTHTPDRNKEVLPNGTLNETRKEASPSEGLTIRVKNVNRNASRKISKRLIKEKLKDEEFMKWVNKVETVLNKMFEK
# T1 sequence 2: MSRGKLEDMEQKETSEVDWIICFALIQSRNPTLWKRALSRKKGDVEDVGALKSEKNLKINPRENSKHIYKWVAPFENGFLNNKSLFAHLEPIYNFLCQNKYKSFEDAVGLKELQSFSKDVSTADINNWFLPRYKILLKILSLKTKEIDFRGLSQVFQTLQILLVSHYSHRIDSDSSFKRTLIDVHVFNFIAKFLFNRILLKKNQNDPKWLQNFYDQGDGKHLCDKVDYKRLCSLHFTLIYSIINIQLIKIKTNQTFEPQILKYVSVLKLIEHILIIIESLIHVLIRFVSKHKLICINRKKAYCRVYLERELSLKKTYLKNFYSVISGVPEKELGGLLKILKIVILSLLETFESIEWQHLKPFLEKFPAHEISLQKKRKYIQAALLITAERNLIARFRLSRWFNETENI
# T2: Mer2 (Saccharomyces cerevisiae, UniProt P21651 1-314)
# T2 sequence: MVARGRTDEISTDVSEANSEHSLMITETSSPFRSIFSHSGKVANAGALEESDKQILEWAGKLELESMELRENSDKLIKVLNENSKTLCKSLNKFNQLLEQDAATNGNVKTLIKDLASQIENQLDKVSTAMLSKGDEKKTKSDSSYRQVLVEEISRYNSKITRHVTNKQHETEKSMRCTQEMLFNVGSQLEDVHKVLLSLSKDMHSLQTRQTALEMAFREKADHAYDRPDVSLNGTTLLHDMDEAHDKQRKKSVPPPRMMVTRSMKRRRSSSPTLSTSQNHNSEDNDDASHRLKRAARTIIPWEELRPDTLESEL
# T3: IHO1 coiled-coil domain (Mus musculus, UniProt Q6PDM4 109-267)
# T3 sequence: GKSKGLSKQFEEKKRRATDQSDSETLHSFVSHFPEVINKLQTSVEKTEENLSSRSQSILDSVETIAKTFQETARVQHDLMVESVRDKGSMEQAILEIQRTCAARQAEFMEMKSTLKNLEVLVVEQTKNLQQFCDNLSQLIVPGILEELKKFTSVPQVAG
# T4: Rec15 coiled-coil domain (Schizosaccharomyces pombe, UniProt Q09094 1-160)
# T4 sequence: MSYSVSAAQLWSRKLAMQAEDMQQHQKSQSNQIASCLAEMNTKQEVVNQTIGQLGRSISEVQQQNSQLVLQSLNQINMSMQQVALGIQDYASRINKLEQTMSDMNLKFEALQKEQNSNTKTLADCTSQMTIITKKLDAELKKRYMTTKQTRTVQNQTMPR
# T5: REC114;MEI4 (Mus musculus;Mus musculus, UniProt Q9CWH4;Q8BRM6 1-259;1-389, |)
# T5 sequence 1: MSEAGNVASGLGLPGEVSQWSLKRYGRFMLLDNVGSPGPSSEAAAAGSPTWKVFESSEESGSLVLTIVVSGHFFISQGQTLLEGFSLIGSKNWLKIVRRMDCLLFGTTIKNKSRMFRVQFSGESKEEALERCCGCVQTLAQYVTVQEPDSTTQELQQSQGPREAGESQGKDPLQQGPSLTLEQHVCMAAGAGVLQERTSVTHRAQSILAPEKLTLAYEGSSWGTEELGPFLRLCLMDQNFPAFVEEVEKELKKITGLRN
# T5 sequence 2: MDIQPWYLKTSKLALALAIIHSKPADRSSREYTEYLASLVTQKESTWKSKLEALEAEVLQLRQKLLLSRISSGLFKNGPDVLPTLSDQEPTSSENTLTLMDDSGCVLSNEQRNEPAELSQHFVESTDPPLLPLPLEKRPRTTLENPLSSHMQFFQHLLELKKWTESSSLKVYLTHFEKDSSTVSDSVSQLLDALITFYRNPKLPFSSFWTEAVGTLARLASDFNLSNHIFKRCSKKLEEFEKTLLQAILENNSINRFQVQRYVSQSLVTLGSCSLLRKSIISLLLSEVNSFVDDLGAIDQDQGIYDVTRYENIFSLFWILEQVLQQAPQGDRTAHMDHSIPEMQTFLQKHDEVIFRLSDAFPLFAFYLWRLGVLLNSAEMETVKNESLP
# Key:
# Rec114;Mei4 [1] = molecular target: T1, Rec114;Mei4; test: competition
# Mer2 [2] = molecular target: T2, Mer2; test: EMSA
# IHO1 coiled-coil domain = molecular target: T3, IHO1 coiled-coil domain; test: competition
# Rec15 coiled-coil domain = molecular target: T4, Rec15 coiled-coil domain; test: competition
# REC114;MEI4 [3] = molecular target: T5, REC114;MEI4; test: competition
# Mer2 [4] = molecular target: T2, Mer2; test: EMSA; remark: listed apart in the source
# Mer2 [5] = molecular target: T2, Mer2; test: EMSA; remark: listed apart in the source
binder,measurement,setting,value
HJ40 (cb095/cb096/cb097/cb098) (structured_DNA) DNA 1: CTAGTATAGAGCCGGCGCGCCATGTCTAGATAGCGTTAGGTCTGCCGAATAGTACTACTCGGATCCCGAGCGAACCACGC DNA 2: GCGTGGTTCGCTCGGGATCCGAGTAGTACTATTCGGCAGAGGATTCGAATAGGCCTAATCGAATTCCGCCATCGATGCAC DNA 3: GTGCATCGATGGCGGAATTCGATTAGGCCTATTCGAATCCAGACGCGAGTAGATCTTCACGGTACCCGCGGTTACCCGTG DNA 4: CACGGGTAACCGCGGGTACCGTGAAGATCTACTCGCGTCTCCTAACGCTATCTAGACATGGCGCGCCGGCTCTATACTAG,binding signal,Rec114;Mei4 [1],~10 fold better competitor than dsDNA
same,apparent K (half saturation),Mer2 [2],9.2 ± 1 nM
same,binding result,IHO1 coiled-coil domain,binds
same,binding result,Rec15 coiled-coil domain,binds
same,binding signal,REC114;MEI4 [3],> 20 fold higher affinity than dsDNA
Fork (cb095/cb098/cb122/cb120) (structured_DNA) DNA 1: CTAGTATAGAGCCGGCGCGCCATGTCTAGATAGCGTTAGGTCTGCCGAATAGTACTACTCGGATCCCGAGCGAACCACGC DNA 2: CACGGGTAACCGCGGGTACCGTGAAGATCTACTCGCGTCTCCTAACGCTATCTAGACATGGCGCGCCGGCTCTATACTAG DNA 3: AGACGCGAGTAGATCTTCACGGTACCCGCGGTTACCCGTG DNA 4: GCGTGGTTCGCTCGGGATCCGAGTAGTACTATTCGGCAGA,apparent K (half saturation),Mer2 [4],24.4 ± 5.5 nM
3' flaps (cb095/cb098/cb122) (structured_DNA) DNA 1: CTAGTATAGAGCCGGCGCGCCATGTCTAGATAGCGTTAGGTCTGCCGAATAGTACTACTCGGATCCCGAGCGAACCACGC DNA 2: CACGGGTAACCGCGGGTACCGTGAAGATCTACTCGCGTCTCCTAACGCTATCTAGACATGGCGCGCCGGCTCTATACTAG DNA 3: AGACGCGAGTAGATCTTCACGGTACCCGCGGTTACCCGTG,apparent K (half saturation),Mer2 [5],34.4 ± 25.2 nM
